We go through 2 molecules from US11959134, “Methods of determining nucleic acid structural information” (Bionano Genomics, Inc.).

In data set [1] the target is T1, M.BseCI DNA adenine methyltransferase (UniProt P43423 P43423:1-579). Put plainly: sequence-specific covalent labeling with Atto532AdoY cofactor seen in nanochannels; 285 nM enzyme, 10 mM Tris-HCl, 10 mM EDTA, 5 mM beta-mercaptoethanol, pH 7.4, 55 C, 5 h. On the procedure: A solution (40 ul) of 2 uL T7 DNA (500 ng/ul), M.BseCI (285 nM) and Atto532AdoY (40 uM) in 10 mM Tris-HCl, 10 mM EDTA, and 5 mM β-mercaptoethanol, pH 7.4 were mixed with 4 uL NaOH (0.1M). The solution was incubated for 5 h at 55° C. Proteinase K (1 ul) was added and the solution incubated for 1 h at 37° C. DNA was ethanol precipitated and redissolved in 1×TE buffer (10 ul).
For DNA staining of the T7 DNA labeled in Example 5, above, a solution (50 ul) of DNA (10 ng/ul), YOYO-1 (500 nM) in 1× flow buffer was incubated for 4 h at 4° C. Subsequently, a freshly prepared solution (4 ul) of 4-nitrobenzoic alcohol (1.4 mM), Trolox (1.4 mM), protocatechuate-3,4-dioxygenase (0.36 uM), protocatechuic acid (50 ug) was mixed with 10 uL of the stained DNA (above) and was loaded onto an IrysChip™ and imaged using the Irys™ instrument. FIG. 4 represents an example of imaged, labeled T7 DNA molecules.

Data set [2] has as its target T1, M.BseCI DNA adenine methyltransferase. Put plainly: labeling with Atto532AdoY, 22x enzyme excess over sites, 55 C, 5 h; labeled DNA assembled into single contig aligned to reference. On the procedure: A solution (40 ul) of E. coli DNA (500 ng), M.BseCI (22× excess over DNA sites) and Atto532AdoY (40 uM) in 10 mM Tris-HCl, 10 mM EDTA, and 5 mM beta-mercaptoethanol, pH 7.4 were mixed with 4 uL NaOH (0.1M). The solution was incubated for 5 h at 55° C. Proteinase K (1 ul) was added and the solution incubated for 1 h at 37° C. The DNA was dialyzed against 1×TE buffer and stained with YOYO-1 to a final concentration of 3.5-5 ng/ul.
A freshly prepared solution (4 ul) of 4-nitrobenzoic alcohol (1.4 mM), Trolox (1.4 mM), protocatechuate-3,4-dioxygenase (0.36 uM), protocatechuic acid (50 ug) was mixed with stained E. coli DNA of Example 7, 1× flow buffer and Tris (25 mM) and NaCl (10 mM) were added. The sample was loaded onto an IrysChip™ and imaged using the Irys™ instrument.
The E. coli DNA of Examples 7 and 8 was assembled and compared to a reference genome. The labeled E. coli DNA assembled into a single contig (FIG. 5, right contig) and aligned to a reference contig sequence (FIG. 5, left contig).

T1 sequence (P43423 whole entry, one chain of several): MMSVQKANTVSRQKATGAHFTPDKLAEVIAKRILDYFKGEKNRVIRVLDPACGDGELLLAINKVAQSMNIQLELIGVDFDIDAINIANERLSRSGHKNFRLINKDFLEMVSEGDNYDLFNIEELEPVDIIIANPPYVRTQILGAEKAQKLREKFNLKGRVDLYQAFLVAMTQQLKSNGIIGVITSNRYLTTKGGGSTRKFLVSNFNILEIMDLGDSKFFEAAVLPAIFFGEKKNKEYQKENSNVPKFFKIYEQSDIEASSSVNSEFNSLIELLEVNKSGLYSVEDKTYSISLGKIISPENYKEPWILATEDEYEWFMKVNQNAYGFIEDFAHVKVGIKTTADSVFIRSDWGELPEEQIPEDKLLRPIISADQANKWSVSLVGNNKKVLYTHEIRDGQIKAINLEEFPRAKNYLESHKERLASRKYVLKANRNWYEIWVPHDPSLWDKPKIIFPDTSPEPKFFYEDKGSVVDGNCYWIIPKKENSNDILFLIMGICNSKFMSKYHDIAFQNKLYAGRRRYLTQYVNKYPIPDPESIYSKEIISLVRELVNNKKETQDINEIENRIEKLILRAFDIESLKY

B1: T7 phage genomic DNA containing three M.BseCI sites (dsDNA)
DNA 1: ATCGAT
DNA 2: ATCGAT
On to B1, for which the binding result in data set [1] is on record as “binds”.

B2: E. coli genomic DNA containing M.BseCI sites (dsDNA)
DNA 1: ATCGAT
DNA 2: ATCGAT
For the molecule B2, the binding result in data set [2] was “binds”.
